Results as given in the nanobody polyreactivity screen of Harvey et al. (2022).

Test: yeast display, Sf9 membrane polyspecificity reagent, FACS + sequencing; frameworks hold sequencing errors
How it was run: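 Polyreactivity labels are assigned by the sorting gate from which each nanobody was recovered. The gates were low and high (top ~1%), set on anti-HA fluorescence for expression and streptavidin fluorescence for reagent binding. Before sorting, galactose-induced (36–48 hours) yeast display cells were stained for 1 hour at 4 °C with 10% biotinylated, detergent-solubilized Sf9 membrane reagent.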

| Sequence | polyreactivity (PSR sort gate) |
| --- | --- |
| QVQLVESGGGLVQAGGSLRLICAASGFTFSINTRGWYRQAPGKEREFVAGISRSGGSTYYADSVKGRFTISRDNAKNTVYLQMNSLKPEDTAVYYCNADRYSWYTPLGYDYWGQGTQVNVSS | high polyreactivity |
| QDQLVESGGGLVQAGGSLRLSCAASGRLFDLNAMGWNRQAPGTERELVAVISWSGGITYYADSVKGRFTSSRDNAKNTVYLLMNSLKPEDTAVYYCNADTDFDPYYEFDYWGQGTQVTVSS | low polyreactivity |
| QVQLVESGGGLVQAGGSLRLSCAASGGIFNYYAMGWYRQAPGKDRELVAAISASGGSTYYADSVKGRFTISRDYAKNTVYLQMNSLKPEDTAVYYCASGLPYGYGYDYWGQGTQVTVSS | low polyreactivity |
| QVQLVESRGGLVQAGGSLRLRCAASGRIIIAYMAWYRQAPGKERELVAAIDSGASTYYADSVKGRFTISRDNAKNNVYLQMNSLIAEDTAVYYCASDVVYDYGGMDYWGQGTQVTVSS | low polyreactivity |
| QVQLVESGGGLVQAGGSLRLSCAASGRIVEGNVMGWYRQAPGKERELVAGISSGGSTTYADSVKGRFTISRDNAKNTVYLQMNSLKPEDTAVYYCAASRKRFRHSSYRFYYCGQGTQVTVSS | high polyreactivity |
| QVQLVESGGGLVQAGGSLRLSCAASGFIFKRYAMGWYRQAPGKERELVAAITLSGGDTYYADSVKGRFTISRDNAKNTVYLQMNSLKPEDTAVYYCNAPYIGENYYWGQGTQVTVSS | high polyreactivity |
| QVQLVESGGGLVQAGGSLRLSCAASGSTFYYNAMGWYRQAPGKEREFVAAISSRGGSTYYADSVKGRFTISRDNAKTTVYLQMNSLKPEDTAVYYCAAKYRHRYDWGQGTQVTVSS | high polyreactivity |
| QVQLVESGGGLVQAGGSLRLSCAASGRIFYNYAMGWYRQAPGKETELVAAISGSGGSTYYADSVKGRFTISRDNAKNTVYLLMNSLKPEDTAVYYCSTSGQQYYSRNFDYWGQGTQVTVSS | low polyreactivity |
| QVQLVESGGALVQAGGSLRLSCAASGSIFRWTAMGWYRQAPGKERVLVAAISKSGASTYYADSVKGRFTISRDNAKNTVYLQMNSLKPEDTAVYYCNRVYLGYFRYDYWGQGTQVTVSS | high polyreactivity |
| QVQLVESGGGLVQAGGSLRLSCAASGRIFFSNAMGWYRQAQGKEREMVASITGGDDTNYADSVKGRFTISRDNAKNTVYLQMNSLKPEDTAVYYCAARAIPSYRWFYRFAPKYDYWGQGTQVTVSS | low polyreactivity |
| QVQLVESGGGLVQAGGSLRLSCAASGLIFFTYAMGWYRQAPGKERELVAAITGRGGRTYYADSVKGRFTISRDNAKNTVYLQMNSLKPEDTAVYYCNAEYRYYQKTPGRYTNVEYDYWGQGTQVTVSS | low polyreactivity |
| QVQLVESGGGLVQAGGSLRLSCAASGSTIWSNAMVWYRQAPGKERELVAVISGGTSTNYADSVKGRFTISRDNAKNTVYLQMNSLKPEDTAVFYCAADWGSYLILINDTDMDYWGQGTQVTVSS | low polyreactivity |
| QVQLVESGGGLVQAGGSLRLSCAASGFTYFGYAMGWYRQAPGKERELVAAISTIDGDTYYADSVKGRFTISRDNAKNTVYLQMNSLKPEDTAVYYCAADDYIDGDDYWGQGTQVTVSS | low polyreactivity |
| QVQLVESGGGLVQAGGSLRLSCAASGGICRYYAMGWYRPAPGKERELVAAISRGGNTKYADSVKGRFTISRDNAKNTVYLQMNSLKPEDTAVYYCNAYTYNRYYWGQGTQVTVSS | high polyreactivity |
| QVQLVESGGGLVQAGGSLRLSCAASGIIFDVYAMGWYRPAPGKERELVAAISYGGGTTYYADSVKGRFTISRDNAKNTVYLQMNSLKPEDTAVYYCAADSYRSIGDDYWGQGTQVTVSS | high polyreactivity |
| QVQLVESGGGLVQAGGSLRLSCAASGSTFVAYAMGWYRQAPGKERELVAAISASGVRTYYADSVKGRFTISRDNAKNTVYLQMNSLKPEDTAVYYCAATVFRKYRYGYWGQGTQVTVSS | high polyreactivity |
| QDQLVESGGCLVQAGGSLRLSCADSGSNFWYYAMVWYRQAPGKERELVAAITSAGSTYYADSVKGRFTISRDNAKITVYLQINSLKPEDTAVYYCAKVKAWSEYYYWGQGTQVTVSS | low polyreactivity |
| QVQLVESGGGLVQAGGSLRLSCAASGITFYIYAMGWYRQAPGKEREFVASITWRGGSTYYADSVKGRFTISRDNAKNTVYLQMNSLKPEDTAVYYCNAEYSSSRYWYYDYWGQGTQVTVSS | high polyreactivity |
| QVQLVESGGGLVQAGGSLRLSCAASGSILEGNGMGWYRQAPGKERELVASITRSGGSTYYSDSVKGRFTISRDNAKNTVYLQMNSLKPEDTAVYYCAAKGSTYGLTIRWYPYLHGYNYWGQGTQVTVSS | low polyreactivity |
| QVQLVESGGGLVQAGGSLRLSCAASGFTFSVNAMVWYRQAPGKERELVAAISSRGSITYYADSVKGRFTISRDNAKNTVYLQMNSLKPEDTAVYYCAAKPLTGSSWEDYYWGQGTQVTVSS | high polyreactivity |
| QVQLVESGGGLVQAGGSLRLSCAASGSTFHKYTMGWYRQAPGKEREFVAAITRNGGTTSYADSVKGRFTISRDNAKNTVYLQMNSLKPEDTAVYYCAVKWRRQINYDYWGQGTQVTVSS | high polyreactivity |
| QVQHVESGGGLVQAGGSLRLSCAASGNIFDRNAMGWDRQARGKERELVAAISRSGGRTYYADSVKGRFTISRDHAKNTVYLQMNSLKPEDTAVYYCNRRYRKYSSAKYDYWGQGTQVTVSS | high polyreactivity |

| Sequence | polyreactivity (PSR sort gate) |
| --- | --- |
| QVQLVESGVGLVQAGGSLRLSCAASGFTFPSYTMGWYRQAPGKERELVAAITSGGITYYADSVKGRFTISRDNANYTVYLQMNSLKPEDTAVYYCAVVNFRTSVYYPYRTMDYWGQGTQVTVSS | high polyreactivity |
| QIQLVESGGGFVQAGGSLRLSCAASGFTFHYYAMGWYSQAPGKERELGAAISWSSGRTYYADSVKGRFTISRDNAQNTVYLQMNSLKPEDTAVYSCAASSYNRGDYWGQGTQVTVSS | low polyreactivity |
| QVQLVESGGGLVQAGGSLRLSCAASGFTFGGNTMGWYRQAPGKERELVAAITQGGSSTYYADSVKGRFTISRDNAKNTVYLQMNSLKPEDTAVYYCNRGSPFGGLRPYDYWGQGTQVTVSS | high polyreactivity |
| QVQLVESGGGLVQAGVSLLLSCAASGSTLYYNAMGWYRQAPGKERELVAAITSGGSTSYADSVKGRFTISRDNAKHTVYLQRNSLKPEDTAVYYCAAVFYRRFDYWGQGTQVTVSS | low polyreactivity |
| QVQLVESGGGLVQAGGSLRLSCADSGTIFALYAMGWYRQAPGKEREFVAAIRRGTSTKYADSVKGRFTISRDNAKNTVYLQMNSLKPEDTAVYYCNARYYYSSSISRWYDYWGQGTQVTVSS | high polyreactivity |
| QVQLVESGGGLVQAGGSLRLTCSASGSTFYYYAMGWYRQAPGKERELVAAITISGGSTYYADSVKGRFTISRDKAKNTVYLQLNSLKPEDTAVYYCNVDDRETRDDYWGQGTQVTVSS | low polyreactivity |
| QVQLVESGGGLVQAGGSLRLSCAASGRTFPYYAMGWYRQAPGKERELVATITYSGGSTYYADSVKGRFTISRDNAKNTVYLQMNSLKPEDTAVYYCAADTGEYSAQYDYWGQGTQVTVSS | high polyreactivity |
| QVQLVESGGGLVQAGGSLRLSCAASGRIFHRYAMGWYRQAPGKEREFVAAITYSTGTTYYADSVKGRFTISRDNAKNTVYLQMNSLKPEDTAVYYCAKDSRFWHKSWFAYGYDYWGQGTQVTVSS | low polyreactivity |
| QVQLVESGGGLVQAGGSLRLSCAASGFTFGYYAMGWYRQAPGKERELVAAITWSGGRTYYADSVKGRFTISRDNAKNTVYLQMNSLKPEDTAVYYCAVETLWQGSEYWGQGTQVTVSS | low polyreactivity |
| QVQLVESGGGLVQAGGSLRLICAASGITYRYAMGWYRQAPGKERELVAAITSSGASTYYADSVKGRFTISRDNAKNTVYLQMNSLKPEDTAVYYCATPLRKVYGGYVYWGQGTQVTVSS | low polyreactivity |
| QVQLVESGGGLVQAGGSLRLSCAASGRTFYVNALGWYRQAPGKERELVAGISFSDGSTYYADSVKGRFTISRDNAKNTVYLQMNSLKPEDTAVYYCATVGAFDIYYGYGYWGQGTQVTVSS | low polyreactivity |
| QVQLVESGGGLVQAGGSLRLSCAASGFILGYYAMGWYRQAPGKERELVAAISWNGGRTYYADSVKGRFTISRDNAKNTVYLQMNSLKPEDTAVYYCAVVATVIPWPYDYWGQGTQVTVSS | high polyreactivity |
| QVQLVESGGGLVQAGGSLRLSCAASGGTFHGYAMGWYRQAPGKERELVAAINWSGTSTYYADSVKGRFTISRDNAKNTVYLQMNRLKPEDTAVYYCAAAYFRGTYYYWGQGTQVTVSS | high polyreactivity |
| QVQLVESGGGLVQAGGSLRLSCAASGRTFSYYAMGWYRQAPGKERELVAAITSSGTGTYYADSVKGRFTISRDNAKNTVYLQMNSLKPEDTAVYYCAVLTTSKSRVKLYYWGQGTQVTVSS | high polyreactivity |
| QVQLVESGGGLVQAGGSLRLSCAASGFIFWDYAMGCYRQAPGKERELVAAISDSGGDTYYADSVKGRFTLSRDNAKNTVYLQMNSLKPEDPAVYYRAADVELWVFRGQQYDYWGQGTQETVSS | low polyreactivity |
| QVQLVESGGGLVQAGGSLRLSCAASGFIFLVNAMGWYSGAPGKERELVAAISKSTGGTYYADSVKGRFTISRDNAKNTVYLQMNSLKPEDTAVYYCAADEVYPVQRDMDYWGQGTQVTVSS | low polyreactivity |
| QVQLQESVGGLVQADGSLRLSCAASGTIFTQSYMGWYRQAPGKEREFVAGISNGTKTNYGDSVKGRFTISRDNAKNTVYLQMHRLKLEDTAVYYCAVKGFYVDVLAYWGQGTHVTVSS | high polyreactivity |
| QVQLVESGGGLVQAGGSLRLSCAASGRTLATYAMGWYRQAPGKERELVADISWRGGTTYYADSVKGRFTISRDNAKNTVYLQMNSLKPEDTAVYYCAKRFLFHSYYWGQGSQVTVSS | high polyreactivity |
| QVQLVESGGGLVQAGGSLRLSCAASGSIRGYAMGWYRQAPGKERELVAAISWRGGSTYYADSVKGRFTISRDNAKNTVYLQMNSLKPEDTAVYYCAAADGIIESDYWGQGTQVTVSS | low polyreactivity |
| QVQLVESGGGLVQAGGSLRLSCAASGSIFTYYAMGWYRQAPGKERELVAAISLDGGSTYYADSVKGRFTISRDNAKNTVYLQMNSLKPEDTAVYYCAADYRFIPYTYLYDYWGQGTQVTVSS | low polyreactivity |
| QVQLVESGGGLVQAGGSLRLSCAASGSIFGGYAMGWYRQAPGKEREWVAAITSSGGRTYYADSVKGRFTISRDNAKNTVYLQMNSLKPEDTAVYYCAARYTRWRYNYKDYDYWGQGTQVTVSS | high polyreactivity |
